From paper PMC10998612

Biological target: eIF2 trimer (recombinant, not phosphorylated), P05198;P20042;P41091
Test: fluorescence polarisation
Details: chain shown with the change; 2.0 µM eIF2 trimer (highest analyte concentration); fluorescein-labeled R3 420-466 peptide as probe; parent: est. 90; read off a plot

Chain of eIF2 trimer (recombinant, not phosphorylated), P05198;P20042;P41091 (chain, as listed by the source, chain 1 of 3): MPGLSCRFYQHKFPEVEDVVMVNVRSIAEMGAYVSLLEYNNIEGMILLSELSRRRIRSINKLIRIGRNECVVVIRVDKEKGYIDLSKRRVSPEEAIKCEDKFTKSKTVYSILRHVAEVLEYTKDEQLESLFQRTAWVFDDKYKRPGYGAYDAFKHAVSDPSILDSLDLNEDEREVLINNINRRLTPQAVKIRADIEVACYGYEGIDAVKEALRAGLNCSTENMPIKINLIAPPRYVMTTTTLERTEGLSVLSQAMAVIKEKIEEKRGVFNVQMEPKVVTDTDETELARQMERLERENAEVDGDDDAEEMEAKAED
Chain of eIF2 trimer (recombinant, not phosphorylated), P05198;P20042;P41091 (chain, as listed by the source, chain 2 of 3): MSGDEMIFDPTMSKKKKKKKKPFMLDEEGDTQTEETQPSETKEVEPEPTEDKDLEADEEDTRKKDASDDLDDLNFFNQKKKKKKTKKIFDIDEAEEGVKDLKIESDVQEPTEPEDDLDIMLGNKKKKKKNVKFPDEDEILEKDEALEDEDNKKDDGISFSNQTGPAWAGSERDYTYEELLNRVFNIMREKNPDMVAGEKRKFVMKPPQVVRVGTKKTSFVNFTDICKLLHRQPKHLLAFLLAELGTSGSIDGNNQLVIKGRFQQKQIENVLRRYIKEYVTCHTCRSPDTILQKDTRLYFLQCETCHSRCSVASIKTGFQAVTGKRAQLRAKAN
Chain of eIF2 trimer (recombinant, not phosphorylated), P05198;P20042;P41091 (chain, as listed by the source, chain 3 of 3): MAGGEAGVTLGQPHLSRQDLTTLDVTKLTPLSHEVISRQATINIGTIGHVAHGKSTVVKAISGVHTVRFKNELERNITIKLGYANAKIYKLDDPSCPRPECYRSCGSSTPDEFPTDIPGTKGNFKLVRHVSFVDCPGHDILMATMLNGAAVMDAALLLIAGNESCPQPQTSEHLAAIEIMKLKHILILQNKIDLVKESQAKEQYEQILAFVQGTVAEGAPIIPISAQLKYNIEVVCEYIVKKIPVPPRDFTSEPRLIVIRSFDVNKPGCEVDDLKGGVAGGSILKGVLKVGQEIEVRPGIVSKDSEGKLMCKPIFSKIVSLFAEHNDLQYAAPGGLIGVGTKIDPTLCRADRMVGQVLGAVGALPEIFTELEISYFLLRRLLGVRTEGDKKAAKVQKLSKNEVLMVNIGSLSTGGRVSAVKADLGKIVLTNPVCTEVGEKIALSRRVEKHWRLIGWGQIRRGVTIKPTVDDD

## ASTPPASAALKAAVYRPGEDTEEEEDEDVDSEDKEDDSEAALGEAES
  response: 27 mP
